From the DeepSol protein solubility set

assay: soluble on expression in E. coli; label from the status in PepcDB or PDB records

Soluble on expression in E. coli, not soluble:
MGSDKIHHHHHHMGQSSEDAAMTLQPFDGFGLGLRPPHYRAFLDSERPLVDFVEVISENFMVGGGRPLHVIDAVRERYPVALHGVSMSVGSADGVKLDYLRRLKGLADRVDPMWVSDHLCWTGVEGFNSHDLLPVPYTEEAMAVVCANIALAQDVLERPLLLENPSSYVTFANDAMAEHQFLAEMCARTGCYLLLDINNIYVSASNHGFDPYEYLAAVPVDRVLQIHLAGHSQGRELLIDTHDQPVPDSVWALYEAAAGRFGPVAAMIERDDDIPPLDDLLAELDVARARWAAGRRGSLAA
MGSDKIHHHHHHMGVSHGYVIWPLGSVHLISAIHPDILEKLMTKTLLLYSTVDGQTLAICQRMQTVMTQAGEQVELLSLNDCSGDALTQVDRVLIGASIRYGKHRPELLSFTNTHQDLLNSKMNGFFTVNVVARKPEKNTPATNPYMIKFLQLSAWQPKVLGVFAGKIAYPKYGPFDRFMIRFIMWMTKGPTDTKGTFEFTDWNKVDEFAGSFVKQ
MGSDKIHHHHHHMHEAVARMLAKYEPKSVDDSVRALREIIQEVALLGLWRSKFFEHAAFYGGTALRILYGLDRFSENLDFSLLEPSPDFNLARYTASLEEELSAFGFNVRVEMVGKAVESAVQSAFLKANTRNELLVIETGGELAGQVAAGQVLKVKIEVDTDPPTGFTTSTRYLLQPIPFAVRSYSLPDLFAGKMHALLFRRWKNRVKGRDWYDFVWYAANHPQLNLAHLEQRMRQTGHWSGDLPLSAAAFRELLSDSIDRLDVDQARNDVAPFVKDQQALALWSHDFFRDVARRVQTDEG
MGSDKIHHHHHHMHEDKNDIFESIDTEDFDNKTEEECLELVRKNGLNLIYIKNQTEEICLEAVRQNCNAIKCVQNQTEKICIEAVKQDWRMLEFVEEPTEEICMLAINQDGTALKYIENQTEELCLRAVEKNGAALEYVKEQTEEICIEAVRNSEFGLARVKNQTEKICMEAVKHCSYNLKWVENQTEEICMEAVRQNGLDLKFVKNQTETICLRAVRQNGMALEFVKEQTVGICLKAVRQYGMALKFVKEQTEEICTEAIKQDKRALSFVKGDKEKYKALYDNNEPFAKRYVRNVIEKENRALIKKGEENAKIKIAGKLYDRGMSFEDISDIVEIEISKLKVSLGVF
MGSDKIHHHHHHMHIAPHDNQNKPIVDAEHDLVPLNYFNIVKLRRGEVFEYAVPGYETCVVPATGTVDIDVEGAIYPDLGNRTEDVWDGEPEGVYVPVGAKVRITCKTDVTETFIAGAKYDKVLEPFDVRADALDVVQYGSDDTKTHRKIKHILGANHHDKVGRLLVSELYTVGEGGWSGFPSHKHDTDRLPDETRHDETYNFRFKPNYGSGVQMLQREDNQPGDAYHIMDGSTVLIDKGYHPCAVLPGYQMYYFTILGGLSQRSLKQYFQPTHAEQLHTIPGIMDMVAKFK
MGSDKIHHHHHHMHMAAKRGRTAQRLELGLQLRQLRENCDGGDRGVGLTRKQAVQGLRISEASLQRIETGSLNFRFVGDLRKLLTKYGVTDEDVVDSLISLNRESNQQDWLTQYRGLMPSGMPGFVGLEPEAHAMKAYHPTLVYGLLQTERYARAVHEVQKPIEEYTTEFIRSSVELRMKRQEVLTRESPVKLHVILGEAALRYPIGGAEVMREQCARIEELSGWDHITVQVLPFRPSYRSINDFAILDFGNNLPPRVQADSAWGSVSTSDKPREVDRFSRRFDTMTASALPPEDTPEFLHRLEREL
MGSDKIHHHHHHMHQDTVRGKAFAMPLISPAYPAGPYRFRNREYLIITYRTDPQKLRDLVPEPLQVCEPMVKFEFIRMPDSTGFGDYTEGGQVIPVSFYGRRGSYTHCMFLDDHPPIAGGRELWGFPKKLASPTLRTETDTLVGTLDYGPVRVATGTMGYKHRAADLASVRASLAEPNFLLKIIPHVDGTPRICELVEYHLEDVHLRGAWTGPAALNLWSHALAPVAELPVLEVVSAVHLVADLTLALGKVVHDYLAKA
MGSDKIHHHHHHMHRFKYDHPLDDGVRRRVMEELAALERRHHVRVLYACESGSRAWGFASPDSDYDVRFLYVHRPQWYLQVEPQRDVIELPLDDELDISGWELRKALQLLNRSNPTMFEWLQSPLVYRADEKAAAALRELMADFHSLGRCRWHYLSMARKNHRVHLQGETVRLKKYLYVLRPLLAVRWLDAGKGLPPMRFADLAAATVEDDGLAAEINHLLAIKMAAGEAQLGGRLPKLDAFIASMLAEPVPPLPGRHDGDVRRLDRLLQEWVMGSVREDGSAACEI
MGSDKIHHHHHHMHSMALPESSYERLRAADCADEIAYVRACLRLYFSGAAAAAGDVSMPNLSAAAVADIARLNKVATFVLKVLSRAPVGERPAELFQWLDTYRRRTVSMNAACLMDSMVIHQALRDRQIDFVFLKGPFQQHLLYDDHFMKPSGDVDILVSPAGFSRARDALRSIGYEVSGKSRSVWWVRFLGEQHMIRGNGPSTVDLHYRLQQPGSPSPRDADGFLRRKRLVEITGTEVPFTSAADTLMLSCISVAKALFNHEPCAGYVCDIRASANRLGEADQQRVLDAAVSQGLDDTLLLGLRAADVLLGATGTLLSERAKPILSRIGNEDLLNMVIAPWLSSLRWPQRRTVLWELCGRAPVRYLAEAAWAASADISRRIFERPASP
MGSDKIHHHHHHMHTCPRCDSKKGEVMSKSPVEGAWEVYQCQTCFFTWRSCEPESITNPEKYNPAFKIDPKETETAIEVPAVPEPKGLIRVNCMSDRLFELLDGSCLNEKQHEAFVLQTVSEDGWPHAAMISAGEIIALSRTDIRIALWKNTMTSANILRTGKAQFTAWWKGAAYYVKLECAPLPPLKDAEYERDRFSCRIVSVKEDVAKYADLTSGVRIQLHSPEEVLSRWKKTLEDLKR
MGSDKIHHHHHHMHVIVKNRYTQEIIHFFLENCRTESLRRSSIYAADFLYGKDQGFFIELRERISNYLDRNVDRISIEIASETGKPFKYIREEILQTIREIKSIRIPEDLHEFVKPGVSALNYNCNDPVLSLFVPLFATILQGSPVLVFANPYNFVSAHIIISMLSEIGLPEGVVNVIPFKPNFNYAYLYGENFSYFQDTYDGLGINRIIQSERHKPATVLWGDIDPDSAVSEFTKRLVRMPFSNEQLLVVDRRMFEYVLNRLKEELSRIVVGDPADGATDLGPVTKDEDLMEALSIVGKYRVERLLAMFRGVEGNLMKPAIILTDDVVKDPFVHAPLVYLVNSASVEDAVNLINEVEADRCALFSDDSKLLKMLYGRTACKEISFNSYMYKDYLFKPFLVKRKILM
MGSDKIHHHHHHMIASKSKQLVYNGRFTTQKTTGVQRVARELIAALIKFQPQDPVTVLVPPRPGVAVSGAKTVEVGFYKGVVWEQLILPLFARRGRIVNLGNSASIFLGNQIIYMHDAAVFDTPAHFSRPFRVWYRIMFWILARTSVCVLTNSRFSRDRLAHHCGVSAEKIRVVPLGADHLDALEPDTSVLDKHALTPDRFVLAVSSMNPTKNFGRLIAAFRQIGDPSVDLVIVGMQNTTVFGKHDPVGAPEPNIKYVGYISDEQLKALYQNAACFLYPSIYEGFGIPPLEAMRYGCPALVGKSAALPEVCADAALYCDPYSQDDIARKLRSLLDSPELRAELKRKGIAHAEQYRWSRSAEMMKAIFETL
MGSDKIHHHHHHMIDELRAMAIFAETIKQGSFRAAAKELKLSPSVVSYQVTQLEKSVGTALIYRSTRKLSLTSEGGVLYQYALNMIQAAQQGLNQVAIEKQELRGTLTLTLPSALIKSEISKKISQFSKLHPFLNFKLFYTDDRQDLIHQGIDLAFRAGSMDDSNLKSKRVGEINRKLVCSYDYWKENIPPISPQDLTTWNWIKLDMLPNHRTLVNSAGEKCDIDFESNISVNNVEAMTQLCINGAGIATPPDYLIEKEIENNALVELLPNWQVESIPLYAVWPSNVFQNSSVKRLLEFLI
MGSDKIHHHHHHMIDIKNTLLLGHRGARGEALENTLSGFEYAQNLQLSGLAGVEFDVQLSRDGQLVVFHDDTLERMCAQQSRLDQLNVSEIQRHRQFGQPIITLLDIASALNTYTYIELEVKTHSRTDYAKLVKALMHDLIDSSLASLPIVLTSFDVALHARLQRSTLLRHIPRGLLIREPELLKQAPNTALQLGCGQLGIHYPLLNHKVIQCCHQYDLPVSAWTVNDIETIKQLIDWQVDVIITDYPSYLLLP
MGSDKIHHHHHHMIDLSLLPPPDVVESVDFEELYQETLGIFREFMKDQWTAALESDPVVKLMEVMAYREMLTRARVNAAAKASLLAFAKGNDLVNRAADYGVEKLVIRPADPDAVPPVEAVMEGDEALRYRTRLSLEALSVAGSSGAYEYHGLSASAELTNVSVDSPRFVEAELTPEVRAQLPAGAIVVVCDYDAGLANPLPGDVSLAILPSLSSTTPVAQLVAKVKAALSAEEVRPITDRPRVAAGVPTEFKVEAELQIEEGPDPDVVKATARAGLNAAIAEARRLQGQLPLSAIYAALHVTGIRSVTLKHPAAGVVCDKRHYPSCTSVTLTSKVVT
MGSDKIHHHHHHMIEHFNPWWKGREGIEEDEDYRKWIGSEVRWVPEVIKKISLEPFSLNIIFGPRQVGKTTLLKLIVKKLLDEGKNPRSIFYLRCDYISDYKELMNVIDEYLEIKETEGIKSSYILLDEVTFPKEWFRAIKLYIDMGKFRNDVLILTGSTSMYTKGEVETFPGRRGKGKDAVMLPLTFREFIKIASPKLHSVLPRINSLNKVEECLKAIPFIEELNSLFKLYLISGGFPRAVKDLLKHNKVSEETYETYISWMRGDILKLGKSEEVARRIMKTIIKKLPSPVSWHGIAKEIDIGSHKTVFSYIELFERMFLIRVLPYIDPDKLEADFKREKKVHLIDPFLYHLVSRWTLTEEPSEDKIVESVVATHVARRYEVGYWRDGREIDVVTREGVGIEVKWSDNVKVSPVKVGKIRKVITLSKSKFSRDPLVIPVSVFLSCI
MGSDKIHHHHHHMIELCEVTKTYPIYHGHAQRTILDRINLRVGKGQKWGILGRNGAGKSTLIRLISGAERPNTGNIVRNMTVSWPLAFGGAFQGSLTGRDNTRLICRAYGVDFDKTITMVENFAELGSYLWEPVKSYSSGMSARLAFAISISVEFDCFLIDEALAVGDHRFLQKCNVELFENRGDRAMIIVSHQTNIIRTHCDHAAVLENGHLTVHESVDSAIAAYEAL
MGSDKIHHHHHHMIENLNGIHETVKYKEYSNVKLFINAEAEDYPIHWHTPMEIIMPLEGGYTVQIGDDLVHLNENDIIFIASGVKHRLIAPDTGKRLILQIEWSAVSKIKELNSILTLIAPAITLTPETSGDIHSNIRKLLLDISNEYQTDSFLSEAVIYSKILEVLVLIGRHHTASSCHFNVGRHKQQEYLERFLSICEYIDTHCTEDITLDEIAKIAGFSKYHFTRLFKQFTNNTFYKYLNQKRIELALTLLADPNISVTETAMQSGFANPSTFIRVFKTEKGCTPTEFRKMFIG
MGSDKIHHHHHHMIGDEPIRIRQLQALNILAESGTMSLTAKAMNISQPAVSRLLSDLSKELGYPLFSRSGRRLTLTREAQYLLPEIQRIFGAMGQIRNLRQNIQDGTSGHLKIACLPGFSTSHLPGVVADFLAARPKTTLTIEPDRPERILDWVIGEQYDCGITDGFRSHHALDSKTIPIRCVCIFPEGHPLEAKSVIHPEDLAGERIAHDRFGSEFYLRLRDILDAEGIAMDNFIETRQFTCACELVSKGVCVSVVSELDAQEYIGKGVSFRPFSANITHQLSLVWPRHTPTSILTLEFLGLFEKSLEPYAMTET
